Experimental data taken from article PMC4643051.

Tests used:
[1] = target: NS1^HA mutant W115A (Dengue virus type 2 (DENV-2), strain 16681); assay: co-IP
[2] = target: NS1^HA mutant S114A (Dengue virus type 2 (DENV-2), strain 16681); assay: co-IP

## Envelope protein (E) of Dengue virus (from UniProt P29990) (natural protein)
[1]
  fold reduction of co-precipitated Envelope against wild-type NS1^HA: 3.8 fold
[2]
  fold reduction of co-precipitated Envelope against wild-type NS1^HA: 7.5 fold
